# Test results as given in the supplement of paper PMC7125110.
# ± gives the standard error. This sample holds only a part of the variants without activity.
# B1: glmS ribozyme (parent)
# chain: AUAAAAGCGCCAGAACUACAGAAAUGUAGUUGACGAGGAGGAGGUUUAUCGAAUUUUCGGCGGAUGCCUCCAAA
# Variants of: B1
# Test: self-cleavage kobs at 2500 uM GlcN6P; higher = faster cleavage; RNA array
# Settings: with glucosamine-6-phosphate
# In short: (§1)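 Sequenced MiSeq chips were the platform: E. coli RNA polymerase transcribed barcoded ribozyme variants on them in situ, and a hybridised Cy3 probe tracked these at 37 °C. After glucosamine-6-phosphate (40 μM to 10 mM) in HEPES/KCl/Mg(OAc)2 buffer was flowed in, tiles were imaged over ~14 h. Signals normalised to baseline and to non-cleaving reference variants were reduced to per-tile medians and fit to one- or two-exponential decays to obtain kobs. kcat and KM were derived through weighted Michaelis–Menten fits across concentrations.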
row,Variant,self-cleavage kobs at 2500 uM GlcN6P [s⁻¹]
1,AUAAAAGCGCCAGAACUACAGAAAUGUAGUUGAAGAGGAGGAGGUUUAUCGAAUUUUCGGCGGAUGCGUCCAAA,< 1e-05
2,AUAAAUGCGCCAGUACUACAGAAAUGUAGUCGACGAGGAGGGGGUUUAUCGCAUUUUCGGCGGCUGCCUCCAAA,< 1e-05
3,AUAAAAGCGCCAGAUCUACAGAAAUGUAGUUGACGAGGAGGAGCUUUAUCGAUUUUUGGGCGGAUGCCUUCAAA,< 1e-05
4,AUAAAAUCGCUAGAACUACAGAAAUGUAGUUGACGAGGAGGAGGUUUAUCCAAUUUUCGGCGGAUGCCUCCAAA,< 1e-05
5,AUAAAAGCGCCAGAACUACAGAAAUGUAGUUGCCGAGGAGCAGGUUUAUCGAAUUUUCGGCGGAUGGCUCCAAA,< 1e-05
6,AUAAAAGCGCCAGAUCUACAGAAAUGUAGUUGACGAGGAGGAGGUUUAUUGAACUUUCCGCGGAUGCCUCCAAA,< 1e-05
7,AUAAAAUCGCCAGAAGUACAGAAAUGUAGUUGACGAGGAGGAGGUUUUUCGAAUUUUCGGCGGAUGCCUCCAAA,< 1e-05
8,AUAAAAGCGCCAGUACUACAGAAAUGUAGUUGACGAGGAGGCGGUUUAUCGAAAUUUCGGCGGAUGCCUCCAAA,< 1e-05
9,AUAAAAGCGCCAGAACUACAGAAAUGUAGUUGACUGGGAGGAGGCUUAUCGAAUUUUCGGCGGAGGCCUCCAAA,< 1e-05
10,AUAAAUGCACCAGAACUACAGAAAUGUAGUUGACGAGGAGGAGGUUUAUCGAAUUUUCGGAGGAUGCCUCCAAA,< 1e-05
11,AUAAAAGCGCUAGAACUACAGAAAUGUAGUUGUCGAGGAGGAGGUUUAUCGAAUUUUCAGCGGAUGCCUCCAAA,0.000169 ± 6.1e-05
12,AUAAAAGCACCCGAACUACAGAAAUGUAGUUGACGAGGAGGAGGUUUAUCGAAUUUUCCGCGGAUGCCUCCAAA,< 1e-05
13,AUAAAAGCGCCAGAACUACAGAAAUGUAGUUGACGAGGAGGAGGUUUAUCGAAUCUUCUGCGGAUGCCUCCAAA,3.25e-05 ± 1.3e-05
14,AUAAAACCGCCAUAACUACAGAAAUGUAGUUGACGAGGAGGACGUUUAUCGAAUUUUCGGCGGAUUCCUCCAAA,< 1e-05
15,AUAAAAGCGCCAGAACUACAGAAAUGUAGUUGACGAGGAGGAGGUUUAUCGAAAUUUCGGCGGAUGAUUCCAAA,9e-05 ± 2.1e-05
16,AUAAAAGCGCCAGAACUACAGAAAUGUAGUUGACGAGGCGGCGGUUUAUCGAAUUUUCGGCGGAUACCUCCAAA,0.00014 ± 4.5e-05

row,Variant,self-cleavage kobs at 2500 uM GlcN6P [s⁻¹]
1,AUAAAAGCGCCAGAACUACAGAAAUGUAGUUGAGGAGGAGGAGGUUCAUCGAAUUUUCGGCGGAUACCUCCAAA,< 1e-05
2,AUAAAAGCCCCAGAACUACAGAAAUGUAGUUGACGAGGAGGAGGUUUCUCCAAUUUUCGGCGGAUGCCUCCAAA,< 1e-05
3,AUAAAAGCGCCAAAACUACAGAAAUGUAGUUGACGAGGAGGAGGUUAAUCGAAUUUUCGGCGGAUACCUCCAAA,0.000103 ± 2.2e-05
4,AUAAAAGCGCCAGAACUAAAGAAAUGUAGUUGAUGAGGAGGAGGAUUUUCGAAUUUUCGGCGGAUGCCUCCAAA,< 1e-05
5,AUAAAAGCGCCAGAACUACAGAAAUGUAGUUGACGAGGACGAGGUUUAUCGGAUGUUCGGCGGAUGCCUCCAAA,4.2e-05 ± 1.1e-05
6,AUAAAAGCGCCAGAACUACAGAAAUGUAGUGGACGAGGAGGAGUUUUAUCCAAUUUUUGGCGUAUGCCUCCAAA,< 1e-05
7,AUAAAAGCGCCAGAACUACAGAAAUUUAGUUCACUAGUAGGAGGUUUAUCGAAUUUUCGGCGCAUGCCUCCAAA,< 1e-05
8,AUAAAAGCGCCAGAACUACAGAAAUGUAGUUUACGAGGAGGAGGUUUAUCGAAUCUUCGGCGGAUGCCUCCAAA,0.000307 ± 7.3e-05
9,AUAAAAGCGCCAGAACUACAGAAAUGUAGUUGACGAGGAUGAGGUUUAUCCAAUUUUUGUCGGAUUCCUCCAAA,< 1e-05
10,AUAAAAGCGCCAGUACUACAGAAAUGUAGUUGACGAGGAGGAGGUUUAUCGAACUUUCGGCGGAGGCCUCCAAA,0.000411 ± 0.00014
11,AUAAAAGAGCCAGAACUACAGAAAUGUAGUUUACGAGGAGGAGGUUUAUCGAAUUUUCAGCGGAUGCCUCCAAA,< 1e-05
12,AUAAAAGCGACAGAACUACAGAAAUGUAGUUGACGAGGAGGAGGUUUAUUGAAUUUUCGGCGGAUGCUUCCAAA,6.13e-05 ± 2.7e-05
13,AUAAAAGCGCCAGAACUACAGAAAUGUAGUUUACGAGGAGGAGGUUUUUCCAAUUUUCGGCGGAUGCCUCCAAA,< 1e-05
14,AUAAAACCGCCAGAACUACAGAAAUGUAGUUGACGAGGAGGAGGUAUAUCGCAUUUUCGGCGGAUGCCUCCAAA,< 1e-05
15,AUAAAAGCGCCAGUACUACAGAAAUGUAGUUGACGAGGAGGAGGUAUAUCGUAUUUUAGGCGGAUGCCUCCAAA,< 1e-05
16,AUAAAAACGCCAGAACUACAGAAAUGUAGUUGACGAGGAGGAGGUUUAUCUAAGUUUCGGCGAAUGCCUCCAAA,< 1e-05

# Variants of: B1
# Test: self-cleavage kobs at 10000 uM GlcN6P; higher = faster cleavage; RNA array
# Settings: with glucosamine-6-phosphate
# In short: as §1
row,Variant,self-cleavage kobs at 10000 uM GlcN6P [s⁻¹]
1,AUAAAAGCGCCAGAACUACAGAAAUGUAGUUGACUGGGAGGAGGCUUAUCGAAUUUUCGGCGGAGGCCUCCAAA,< 1e-05
2,AUAAAAGCGCUAGAACUACAGAAAUGUAGUUGUCGAGGAGGAGGUUUAUCGAAUUUUCAGCGGAUGCCUCCAAA,0.000262 ± 5.4e-05
3,AUAAAAGCGCCAGAACUACAGAAAUGUAGUUGACGAGGAGGAGGUUUAUCGAAUCUUCUGCGGAUGCCUCCAAA,2.55e-05 ± 1.2e-05
4,AUAAAAGCGCCAAAACUACAGAAAUGUAGUUGACGAGGAGGAGGUUAAUCGAAUUUUCGGCGGAUACCUCCAAA,0.000143 ± 2.8e-05
5,AUAAAAGCGCCAGAACUACAGAAAUGUAGUUUACGAGGAGGAGGUUUAUCGAAUCUUCGGCGGAUGCCUCCAAA,0.000584 ± 6.9e-05
